Measurements: patent US9175305B2, “Mutant hydroxyphenylpyruvate dioxygenase polypeptides and methods of use” (Syngenta Participations AG, priority 2009, dated 2015)
Residue numbers refer to the chain shown, from its start. Names and notes keep the numbering of the source.

B1: S415K: S415K mutant of SEQ ID NO:14 (protein)
chain: MPPTPATATGAAAAAVTPEHAARSFPRVVRVNPRSDRFPVLSFHHVELWCADAASAAGRFSFALGAPLAARSDLSTGNSAHASLLLRSGALAFLFTAPYAPPPQEAATAATASIPSFSADAARTFAAAHGLAVRSVGVRVADAAEAFRVSVAGGARPAFAPADLGHGFGLAEVELYGDVVLRFVSYPDETDLPFLPGFERVSSPGAVDYGLTRFDHVVGNVPEMAPVIDYMKGFLGFHEFAEFTAEDVGTTESGLNSVVLANNSEAVLLPLNEPVHGTKRRSQIQTYLEYHGGPGVQHIALASNDVLRTLREMRARTPMGGFEFMAPPQAKYYEGVRRIAGDVLSEEQIKECQELGVLVDRDDQGVLLQIFTKPVGDRPTFFLEMIQRIGCMEKDEVGQEYQKGGCGGFGKGNFKELFKSIEDYEKSLEVKQSVVAQKS
modifications: mutant HPPD polypeptide
B2: A326S: A326S mutant of SEQ ID NO:14 (protein)
chain: B1 chain with A326S, K415S
modifications: mutant HPPD polypeptide
B3: G254A: G254A mutant of SEQ ID NO:14 (protein)
chain: B1 chain with G254A, K415S
modifications: mutant HPPD polypeptide
B4: V258M: V258M mutant of HPPD SEQ ID NO:14 (protein)
chain: B1 chain with V258M, K415S
modifications: mutant HPPD polypeptide
B5: V258K: V258K mutant of SEQ ID NO:14 (protein)
chain: B1 chain with V258K, K415S
modifications: mutant HPPD polypeptide
B6: I299M: I299M mutant of SEQ ID NO:14 (protein)
chain: B1 chain with I299M, K415S
modifications: mutant HPPD polypeptide
B7: L269M: L269M mutant of SEQ ID NO:14 (protein)
chain: B1 chain with L269M, K415S
modifications: mutant HPPD polypeptide
B8: S415Q: S415Q mutant of SEQ ID NO:14 (protein)
chain: B1 chain with K415Q
modifications: mutant HPPD polypeptide
B9: T372S: T372S mutant of SEQ ID NO:14 (protein)
chain: B1 chain with T372S, K415S
modifications: mutant HPPD polypeptide
B10: G254S: G254S mutant of SEQ ID NO:14 (protein)
chain: B1 chain with G254S, K415S
modifications: mutant HPPD polypeptide
B11: M325L: M325L mutant of HPPD SEQ ID NO:14 (protein)
chain: B1 chain with M325L, K415S
modifications: mutant HPPD polypeptide
B12: L358M: L358M mutant of HPPD SEQ ID NO:14 (apparently the change of SEQ ID NO:24) (protein)
chain: B1 chain with L358M, K415S
modifications: mutant HPPD polypeptide
B13: L281V: mutant of HPPD SEQ ID NO:14, called L271V in the text (protein)
chain: B1 chain with L271V, K415S
modifications: mutant HPPD polypeptide
B14: L269F: L269F mutant of SEQ ID NO:14 (protein)
chain: B1 chain with L269F, K415S
modifications: mutant HPPD polypeptide
B15: V258I: V258I mutant of SEQ ID NO:14 (protein)
chain: B1 chain with V258I, K415S
modifications: mutant HPPD polypeptide
B16: I421L: I421L mutant of SEQ ID NO:14 (protein)
chain: B1 chain with K415S, I421L
modifications: mutant HPPD polypeptide
B17: V258A: V258A mutant of SEQ ID NO:14 (protein)
chain: B1 chain with V258A, K415S
modifications: mutant HPPD polypeptide
B18: A326R: A326R mutant of HPPD SEQ ID NO:14 (protein)
chain: B1 chain with A326R, K415S
modifications: mutant HPPD polypeptide
B19: S420A: S420A mutant of SEQ ID NO:14 (protein)
chain: B1 chain with K415S, S420A
modifications: mutant HPPD polypeptide
B20: E416Q: E416Q mutant of SEQ ID NO:14 (protein)
chain: B1 chain with K415S, E416Q
modifications: mutant HPPD polypeptide
B21: L281I: mutant of HPPD SEQ ID NO:14, called L271I in the text (protein)
chain: B1 chain with L271I, K415S
modifications: mutant HPPD polypeptide
B22: K411T: K411T mutant of HPPD SEQ ID NO:14 (protein)
chain: B1 chain with K411T, K415S
modifications: mutant HPPD polypeptide

Assays:
[1] = catalytic activity and herbicide resistance of mutants of SEQ ID NO:14 in extracts; format: biochemical, Avena sativa
Source text: These further mutations can all be optionally combined with the resistance conferring mutations to produce catalytically active variants of HPPD herbicide resistant enzymes of the current invention.

[2] = Km and kcat of expressed HPPDs (HPLC/UV quantitation of homogentisate); format: biochemical, Avena sativa; settings: for V217I, L271I, L271V, V258M, A326R estimated from initial rates in cell extracts, pH 7.0, 25° C., 120 μM HPP
Protocol: The assay solution was transferred to Chromacol 03-CVG HPLC vials, sealed and the amount of homogentisate formed in a 40 μl aliquot determined by injection onto a reverse phase Aqua C18 5μ 75×4.6 mm HPLC column running 5.5% acetonitrile 0.1% TFA (Buffer A) at 1.5 ml/min. The column was eluted at 1.5 ml/minute using a 2 minute wash in buffer A, followed by a 2 minute wash in a 30/70 mixture of buffer A and 100% Acetonitrile, and a further 3.5 minute wash in buffer A. The elution of homogentisate was monitored by UV at 292 nm and the amount formed in each reaction quantified by comparison with a standard calibration curve.
Km and Vmax values were determined (for example FIG. 1) using a non linear least squares fit using Grafit 4™ software (Erithacus Software, Middlesex, UK). Kcat values were determined by dividing the maximum rate, Vmax expressed in nmol/second by the number of nmoles of HPPD enzyme (based on the concentration determined by active-site titration).
Experiments were carried out as described for Table 4. ‘Sulc’ denotes sulcotrione and ‘nd’ means ‘no data’. For V217I, L271I, L271V, V258M and A326R, the relative values of kcat were estimated from comparisons of the initial rates in cell extracts of similarly prepared and expressed HPPDs in conventional enzyme activity assays at pH 7.0, 25° C. and at a substrate concentration of 120 μM HPP.

Molecule	catalytic activity and resistance to sulcotrione relative to control, unmutated SEQ ID NO:14 [1]	Rate: kcat relative to non-mutated HPPD SEQ ID NO:14 [2]
B1	neutral mutations	
B2	neutral mutations	
B3	neutral mutations	
B4	neutral mutations	1
B5	neutral mutations	
B6	neutral mutations	
B7	neutral mutations	
B8	neutral mutations	
B9	neutral mutations	
B10	neutral mutations	
B11		1.2
B12		0.7
B13		2
B14	neutral mutations	
B15	neutral mutations	
B16	neutral mutations	
B17	neutral mutations	
B18		1.2
B19	neutral mutations	
B20	neutral mutations	
B21		1.7
B22		1
